This passage reports protein stability index results from the supplement of paper PMC10567573.

The chains are these.
B1: ZNF449 (parent)
chain: RIHSGEEPHKCPECGKRFLRSSDL
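Note: lentivirally expressed fusions sorted by FACS into six bins by GFP to DsRed ratio, PSI derived from sequencing read proportions per bin multiplied by bin number.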

The data set covers variants of B1. The data set is described as follows: protein stability index of a GFP-peptide fusion (GPS, HEK-293T) (PSI 1-6); higher = more stable. Conditions: c terminus: a fixed tail appended.
As to RIHSGEEPHKCPECGKRFLRPSDL [S21P], the protein stability index amounted to 2.86.

For RIHSGEEPHKCPECGKRFLRMSDL [S21M], the protein stability index came out at 2.24.

On to RIHSGEEPHKCPECGKRFLRQSDL [S21Q], for which the protein stability index turned out to be 2.75.

RIHSGEEPHKCPECGKRFLRYSDL [S21Y]: the protein stability index stood at 3.22.

With RIHSGEEPHKCPECGKRFLYSSDL [R20Y], the protein stability index turned out to be 2.86.

As to RIHSGEEPHKCPECGKRFLLSSDL [R20L], the protein stability index is 3.32.

Regarding RIHSGEEPHKCPECGKRFLTSSDL [R20T], the protein stability index came out at 3.17.

With RIHSGEEPHKCPECGKRFLESSDL [R20E], the protein stability index is 3.91.

For the variant RIHSGEEPHKCPECGKRFLMSSDL [R20M], the protein stability index worked out at 3.41.

As to RIHSGEEPHKCPECGKRFLNSSDL [R20N], the protein stability index came out at 4.21.

On to RIHSGEEPHKCPECGKRFLQSSDL [R20Q], for which the protein stability index worked out at 4.3.

RIHSGEEPHKCPECGKRFLFSSDL [R20F]: the protein stability index came out at 3.35.

With RIHSGEEPHKCPECGKRFLCSSDL [R20C], the protein stability index worked out at 3.88.

RIHSGEEPHKCPECGKRFLHSSDL [R20H]: the protein stability index turned out to be 2.89.

RIHSGEEPHKCPECGKRFLVSSDL [R20V]: the protein stability index came out at 2.27.

As for RIHSGEEPHKCPECGKRFLKSSDL [R20K], the protein stability index was determined as 3.25.

As to RIHSGEEPHKCPECGKRFLWSSDL [R20W], the protein stability index was 2.31.

With RIHSGEEPHKCPECGKRFLDSSDL [R20D], the protein stability index came out at 3.47.

As for RIHSGEEPHKCPECGKRFLISSDL [R20I], the protein stability index came out at 2.91.

On to RIHSGEEPHKCPECGKRFLASSDL [R20A], for which the protein stability index came out at 4.09.

In the case of RIHSGEEPHKCPECGKRFLPSSDL [R20P], the protein stability index was 3.99.

Turning to RIHSGEEPHKCPECGKRFLSSSDL [R20S], the protein stability index is 3.82.

Consider RIHSGEEPHKCPECGKRFLRSTDL [S22T], for which the protein stability index amounted to 3.05.

Turning to RIHSGEEPHKCPECGKRFLRSGDL [S22G], the protein stability index was 3.74.

Take RIHSGEEPHKCPECGKRFLRSFDL [S22F]: the protein stability index was 2.77.

For RIHSGEEPHKCPECGKRFLRSWDL [S22W], the protein stability index is 1.94.

RIHSGEEPHKCPECGKRFLRSMDL [S22M]: the protein stability index is 2.28.

For RIHSGEEPHKCPECGKRFLRSDDL [S22D], the protein stability index came out at 4.06.

Turning to RIHSGEEPHKCPECGKRFLRSCDL [S22C], the protein stability index was determined as 3.94.

For the variant RIHSGEEPHKCPECGKRFLRSEDL [S22E], the protein stability index came to 3.62.

As to RIHSGEEPHKCPECGKRFLRSKDL [S22K], the protein stability index was 2.57.

As for RIHSGEEPHKCPECGKRFLRSLDL [S22L], the protein stability index was determined as 2.67.

Consider RIHSGEEPHKCPECGKRFLRSNDL [S22N], for which the protein stability index was found to be 3.3.

As to RIHSGEEPHKCPECGKRFLRSRDL [S22R], the protein stability index was 3.02.

RIHSGEEPHKCPECGKRFLRSIDL [S22I]: the protein stability index was 2.77.

Turning to RIHSGEEPHKCPECGKRFLRSHDL [S22H], the protein stability index came to 3.56.

As for RIHSGEEPHKCPECGKRFLRSYDL [S22Y], the protein stability index amounted to 3.01.

On to RIHSGEEPHKCPECGKRFLRSVDL [S22V], for which the protein stability index worked out at 3.58.

RIHSGEEPHKCPECGKRFLRSPDL [S22P]: the protein stability index came out at 3.5.

On to RIHSGEEPHKCPECGKRFLRSADL [S22A], for which the protein stability index is 2.93.

Consider RIHSGEEPHKCPECGKRFLRSSSL [D23S], for which the protein stability index was found to be 2.46.

As to RIHSGEEPHKCPECGKRFLRSSTL [D23T], the protein stability index was found to be 2.7.

As for RIHSGEEPHKCPECGKRFLRSSNL [D23N], the protein stability index was 2.8.

RIHSGEEPHKCPECGKRFLRSSYL [D23Y]: the protein stability index was 1.72.

In the case of RIHSGEEPHKCPECGKRFLRSSIL [D23I], the protein stability index is 1.61.

For the variant RIHSGEEPHKCPECGKRFLRSSRL [D23R], the protein stability index was determined as 1.51.

As to RIHSGEEPHKCPECGKRFLRSSLL [D23L], the protein stability index was determined as 2.16.

Take RIHSGEEPHKCPECGKRFLRSSKL [D23K]: the protein stability index is 2.77.

With RIHSGEEPHKCPECGKRFLRSSHL [D23H], the protein stability index came out at 3.41.

As for RIHSGEEPHKCPECGKRFLRSSAL [D23A], the protein stability index is 2.23.

With RIHSGEEPHKCPECGKRFLRSSFL [D23F], the protein stability index amounted to 2.04.

Take RIHSGEEPHKCPECGKRFLRSSEL [D23E]: the protein stability index worked out at 2.52.

On to RIHSGEEPHKCPECGKRFLRSSVL [D23V], for which the protein stability index came to 1.73.

Consider RIHSGEEPHKCPECGKRFLRSSQL [D23Q], for which the protein stability index came to 1.86.

On to RIHSGEEPHKCPECGKRFLRSSCL [D23C], for which the protein stability index was found to be 2.75.

RIHSGEEPHKCPECGKRFLRSSPL [D23P]: the protein stability index worked out at 2.29.

For RIHSGEEPHKCPECGKRFVRSSDL [L19V], the protein stability index turned out to be 3.32.

On to RIHSGEEPHKCPECGKRFERSSDL [L19E], for which the protein stability index came out at 4.32.

On to RIHSGEEPHKCPECGKRFNRSSDL [L19N], for which the protein stability index amounted to 3.27.

For the variant RIHSGEEPHKCPECGKRFPRSSDL [L19P], the protein stability index is 3.54.

Regarding RIHSGEEPHKCPECGKRFARSSDL [L19A], the protein stability index was found to be 3.96.

In the case of RIHSGEEPHKCPECGKRFRRSSDL [L19R], the protein stability index amounted to 3.74.

Turning to RIHSGEEPHKCPECGKRFDRSSDL [L19D], the protein stability index was 3.88.

As for RIHSGEEPHKCPECGKRFSRSSDL [L19S], the protein stability index is 4.05.

Regarding RIHSGEEPHKCPECGKRFGRSSDL [L19G], the protein stability index came to 4.31.

For RIHSGEEPHKCPECGKRFHRSSDL [L19H], the protein stability index stood at 3.41.

As for RIHSGEEPHKCPECGKRFYRSSDL [L19Y], the protein stability index is 3.23.

For the variant RIHSGEEPHKCPECGKRFQRSSDL [L19Q], the protein stability index came out at 4.41.

Consider RIHSGEEPHKCPECGKRFTRSSDL [L19T], for which the protein stability index was found to be 3.65.

Take RIHSGEEPHKCPECGKRFWRSSDL [L19W]: the protein stability index was determined as 3.09.

For RIHSGEEPHKCPECGKRFKRSSDL [L19K], the protein stability index worked out at 4.04.

On to RIHSGEEPHKCPECGKRFMRSSDL [L19M], for which the protein stability index is 4.05.

Regarding RIHSGEEPHKCPECGKRFCRSSDL [L19C], the protein stability index was determined as 4.48.

With RIHSGEEPHKCPECGKRFFRSSDL [L19F], the protein stability index came out at 3.26.

On to RIHSGEEPHKCPECGKRFIRSSDL [L19I], for which the protein stability index amounted to 2.76.

Take RIHSGEEPHKCPECGKRFLRSSDN [L24N]: the protein stability index stood at 3.89.

For the variant RIHSGEEPHKCPECGKRFLRSSDA [L24A], the protein stability index came to 3.92.

Take RIHSGEEPHKCPECGKRFLRSSDH [L24H]: the protein stability index came to 3.63.

With RIHSGEEPHKCPECGKRFLRSSDG [L24G], the protein stability index amounted to 3.82.

Turning to RIHSGEEPHKCPECGKRFLRSSDY [L24Y], the protein stability index was found to be 3.29.

As for RIHSGEEPHKCPECGKRFLRSSDE [L24E], the protein stability index was determined as 4.42.

With RIHSGEEPHKCPECGKRFLRSSDM [L24M], the protein stability index stood at 3.41.

For the variant RIHSGEEPHKCPECGKRFLRSSDC [L24C], the protein stability index stood at 3.63.

Turning to RIHSGEEPHKCPECGKRFLRSSDK [L24K], the protein stability index stood at 3.96.

As for RIHSGEEPHKCPECGKRFLRSSDI [L24I], the protein stability index came out at 2.5.

For the variant RIHSGEEPHKCPECGKRFLRSSDF [L24F], the protein stability index worked out at 3.3.

For RIHSGEEPHKCPECGKRFLRSSDQ [L24Q], the protein stability index came to 4.91.

Consider RIHSGEEPHKCPECGKRFLRSSDR [L24R], for which the protein stability index came out at 2.29.

Consider RIHSGEEPHKCPECGKRFLRSSDS [L24S], for which the protein stability index was found to be 3.88.

Turning to RIHSGEEPHKCPECGKRFLRSSDV [L24V], the protein stability index is 3.31.

Consider RIHSGEEPHKCPECGKRFLRSSDT [L24T], for which the protein stability index came to 3.79.

Regarding RIHSGEEPHKCPECGKRFLRSSDW [L24W], the protein stability index came to 2.93.

Regarding RIHSGEEPHKCPECGKRFLRSSDP [L24P], the protein stability index came to 4.12.

On to RIHSGEEPHKCPECGKRFLRSSDD [L24D], for which the protein stability index turned out to be 4.61.
